Assay results reported in patent US20140199327A1, “METHODS OF PROMOTING DIFFERENTIATION” (Genentech, Inc., priority 2011, published 2014).

Experiments:
Test in all cases: Flag immunoprecipitation of DUBs from 293T cells cotransfected with ID2, MG-132 treated (FIG. 2B)
[1] = target: T1, USP36-Flag (human USP36 with C-terminal Flag epitope) (human, UniProt Q9P275 1-1123, limits assumed)
T1 sequence (looked up): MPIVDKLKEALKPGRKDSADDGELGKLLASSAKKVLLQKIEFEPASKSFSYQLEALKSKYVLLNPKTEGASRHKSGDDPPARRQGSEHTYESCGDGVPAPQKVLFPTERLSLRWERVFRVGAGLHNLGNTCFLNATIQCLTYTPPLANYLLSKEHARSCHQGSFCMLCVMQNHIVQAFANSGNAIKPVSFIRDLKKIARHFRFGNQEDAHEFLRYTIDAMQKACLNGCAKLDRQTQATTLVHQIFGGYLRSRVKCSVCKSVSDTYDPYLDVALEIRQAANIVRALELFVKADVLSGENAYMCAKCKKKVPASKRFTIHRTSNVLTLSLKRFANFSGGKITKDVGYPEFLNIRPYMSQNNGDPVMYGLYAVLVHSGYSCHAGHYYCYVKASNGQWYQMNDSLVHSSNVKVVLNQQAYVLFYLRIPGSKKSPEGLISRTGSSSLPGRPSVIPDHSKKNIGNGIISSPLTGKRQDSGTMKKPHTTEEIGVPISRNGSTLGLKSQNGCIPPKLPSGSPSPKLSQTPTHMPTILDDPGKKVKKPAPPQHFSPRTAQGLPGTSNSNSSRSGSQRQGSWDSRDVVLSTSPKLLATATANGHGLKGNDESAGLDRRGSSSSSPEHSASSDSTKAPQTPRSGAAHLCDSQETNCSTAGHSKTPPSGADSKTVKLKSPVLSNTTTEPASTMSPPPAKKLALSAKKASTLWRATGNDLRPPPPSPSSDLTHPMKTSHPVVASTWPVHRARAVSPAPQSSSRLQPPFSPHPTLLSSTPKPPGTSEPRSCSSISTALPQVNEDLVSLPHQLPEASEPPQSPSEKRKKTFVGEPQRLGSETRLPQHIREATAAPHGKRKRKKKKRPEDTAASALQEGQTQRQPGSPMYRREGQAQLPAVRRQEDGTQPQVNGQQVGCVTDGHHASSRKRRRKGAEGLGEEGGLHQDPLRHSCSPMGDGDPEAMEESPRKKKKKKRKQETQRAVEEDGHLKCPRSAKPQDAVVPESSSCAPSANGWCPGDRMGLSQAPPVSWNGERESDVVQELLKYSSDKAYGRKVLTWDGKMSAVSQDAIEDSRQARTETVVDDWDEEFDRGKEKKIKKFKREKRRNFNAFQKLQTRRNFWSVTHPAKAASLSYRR
Protocol: (§1) FIG. 2. […] (A) Western blot (WB) analysis of 293T transfected with Flag-tagged deubiquitinases (DUBs) or an empty vector (−). Where indicated, cells were treated with […] MG-132 for 4 hr. (B) Flag-tagged DUBs were immunoprecipitated (IP) from 293T cells cotransfected with ID2 and treated with […] MG-132 for 6 hr.

[2] = target: T2, OTUD5-Flag (human OTUD5 with C-terminal Flag epitope) (human, UniProt Q96G74 1-571, limits assumed)
T2 sequence (looked up): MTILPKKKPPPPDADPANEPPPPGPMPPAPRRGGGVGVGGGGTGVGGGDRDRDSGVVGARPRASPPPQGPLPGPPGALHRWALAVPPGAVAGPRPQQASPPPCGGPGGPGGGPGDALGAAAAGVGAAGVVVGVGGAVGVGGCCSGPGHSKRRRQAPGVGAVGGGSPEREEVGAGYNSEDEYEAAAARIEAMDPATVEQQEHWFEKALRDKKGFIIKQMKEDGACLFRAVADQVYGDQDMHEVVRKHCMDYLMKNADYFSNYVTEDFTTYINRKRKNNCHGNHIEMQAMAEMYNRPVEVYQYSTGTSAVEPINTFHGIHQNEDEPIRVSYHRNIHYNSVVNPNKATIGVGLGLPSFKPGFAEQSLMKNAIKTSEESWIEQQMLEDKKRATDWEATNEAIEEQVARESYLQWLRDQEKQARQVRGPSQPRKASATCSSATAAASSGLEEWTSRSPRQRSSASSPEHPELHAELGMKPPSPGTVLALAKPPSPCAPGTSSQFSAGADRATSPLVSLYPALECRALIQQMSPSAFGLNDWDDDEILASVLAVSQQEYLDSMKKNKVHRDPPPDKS
Protocol: as §1

[3] = target: T3, SENP5-Flag (human SENP5 with C-terminal Flag epitope) (human, UniProt Q96HI0 1-755, limits assumed)
T3 sequence (looked up): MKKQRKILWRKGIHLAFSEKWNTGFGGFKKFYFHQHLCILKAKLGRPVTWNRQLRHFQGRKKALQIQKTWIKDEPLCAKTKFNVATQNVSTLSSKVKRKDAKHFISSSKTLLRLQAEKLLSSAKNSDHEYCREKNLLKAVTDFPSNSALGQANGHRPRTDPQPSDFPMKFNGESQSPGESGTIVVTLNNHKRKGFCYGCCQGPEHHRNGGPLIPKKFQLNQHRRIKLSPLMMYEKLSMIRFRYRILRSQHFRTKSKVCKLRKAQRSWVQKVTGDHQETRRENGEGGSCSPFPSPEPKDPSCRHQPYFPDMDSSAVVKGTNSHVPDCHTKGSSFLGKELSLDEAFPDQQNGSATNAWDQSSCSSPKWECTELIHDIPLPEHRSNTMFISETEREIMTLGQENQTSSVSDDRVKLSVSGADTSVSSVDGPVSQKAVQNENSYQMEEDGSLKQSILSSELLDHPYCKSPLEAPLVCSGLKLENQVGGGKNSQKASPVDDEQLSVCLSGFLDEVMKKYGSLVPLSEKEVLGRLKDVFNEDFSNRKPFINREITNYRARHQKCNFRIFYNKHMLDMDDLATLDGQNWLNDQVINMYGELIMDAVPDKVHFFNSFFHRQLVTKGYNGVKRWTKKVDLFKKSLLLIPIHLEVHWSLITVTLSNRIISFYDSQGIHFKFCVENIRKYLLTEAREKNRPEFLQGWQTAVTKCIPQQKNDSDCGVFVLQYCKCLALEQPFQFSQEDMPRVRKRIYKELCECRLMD
Protocol: as §1

Measured: binding result

B1: ID2 (co-transfected / co-expressed in 293T cells) (other)
chain: MKAFSPVRSVRKNSLSDHSLGISRSKTPVDDPMSLLYNMNDCYSKLKELVPSIPQNKKVSKMEILQHVIDYILDLQIALDSHPTIVSLHHQRPGQNQASRTPLTTLNTDISILSLQASEFPSELMSNDSKALCG
notes: ID2 was amplified from Jurkat-derived cDNA; The methods describe only a C-terminal Flag version in pRK2001
no binding: [1] | [2] | [3]
